Consider 2 molecules from paper PMC11873932, “PSKH1 kinase activity is differentially modulated via allosteric binding of Ca^2+ sensor proteins” (Proceedings of the National Academy of Sciences of the …, 2025).

Test [1] addresses T1, Protein Serine Kinase H1 (PSKH1), recombinant full-length, wild type (human, UniProt P11801 1-424).
T1 sequence (looked up): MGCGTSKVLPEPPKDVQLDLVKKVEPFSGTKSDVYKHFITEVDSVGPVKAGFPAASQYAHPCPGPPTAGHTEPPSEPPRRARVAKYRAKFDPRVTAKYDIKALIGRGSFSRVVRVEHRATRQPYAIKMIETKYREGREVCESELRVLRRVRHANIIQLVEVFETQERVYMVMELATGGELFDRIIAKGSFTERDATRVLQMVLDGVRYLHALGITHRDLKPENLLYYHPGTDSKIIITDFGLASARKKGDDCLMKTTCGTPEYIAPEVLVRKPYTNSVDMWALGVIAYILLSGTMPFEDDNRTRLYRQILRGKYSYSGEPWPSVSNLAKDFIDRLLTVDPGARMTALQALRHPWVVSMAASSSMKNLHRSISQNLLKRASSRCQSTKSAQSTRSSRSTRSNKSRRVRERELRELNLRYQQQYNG
As to the kind of experiment: cell-based or functional assay.

Test [2] has as its target T1, Protein Serine Kinase H1 (PSKH1), …. As to the kind of experiment: cross-linking; SDA (NHS-Diazirine, 1 mg/mL) cross-linking mass spectrometry; recombinant full-length PSKH1 with Calmodulin, RCN3 or UNC119B at 1:2 molar ratio; 30 min in the dark at room temperature, UV 365 nm; bands cut from reducing SDS-PAGE, trypsin. The settings on record: both partners purified.

B1: Reticulocalbin-3 (RCN3), recombinant (His6-RCN3) (natural protein, human, UniProt Q96D15 21-328, looked up)
chain: KPSPDAGPHGQGRVHQAAPLSDAPHDDAHGNFQYDHEAFLGREVAKEFDQLTPEESQARLGRIVDRMDRAGDGDGWVSLAELRAWIAHTQQRHIRDSVSAAWDTYDTDRDGRVGWEELRNATYGHYAPGEEFHDVEDAETYKKMLARDERRFRVADQDGDSMATREELTAFLHPEEFPHMRDIVIAETLEDLDRNKDGYVQVEEYIADLYSAEPGEEEPAWVQTERQQFRDFRDLNKDGHLDGSEVGHWVLPPAQDQPLVEANHLLHESDTDKDGRLSKAEILGNWNMFVGSQATNYGEDLTRHHDEL
As to B1, the “radiometric kinase assay (ADR1 peptide phosphorylation) of HA-tagged PSKH1 (10 ng) with Ca2+-RCN3 (1 uM)” value in test [1] was around 2 fold.

B2: UNC119B, recombinant full-length (natural protein)
chain: not shown
notes: UNC119B, human, full length
On to B2, for which the binding result in test [2] is “binds”.
